This passage reports Km and Vmax results from PMC6652007, “Metabolic engineering of Clostridium thermocellum for n-butanol production from cellulose” (Biotechnology for Biofuels, 2019).

In series [1] the test system is CC(O)CC(=O)SCCNC(=O)CCNC(=O)[C@H](O)C(C)(C)COP(=O)(O)OP(=O)(O)OC[C@H]1O[C@@H](n2cnc3c(N)ncnc32)[C@H](O)[C@@H]1OP(=O)(O)O. The series can be described thus: purified protein. The settings on record: 0.3 mM NADH, coupled with Ter, 100 mM MOPS-KOH pH 7.5, 55 °C.
Series [2] relates to T1, CC(=O)CC(=O)SCCNC(=O)CCNC(=O)[C@H](O)C(C)(C)COP(=O)(O)OP(=O)(O)OC[C@H]1O[C@@H](n2cnc3c(N)ncnc32)[C@H](O)[C@@H]1OP(=O)(O)O.
T1 construct: His-tagged (vector pD861-CH), codon-optimised, expressed in E. coli BL21(DE3)
The series is described as follows: NADH oxidation, A340. It counts as biochemical, Thermoanaerobacterium thermosaccharolyticum. The following applies: 0.3 mM NADH, 100 mM MOPS-KOH pH 7.5, 55 °C. The text has this: NADH oxidation, A340 on Tt_Hbd

For series [3], the system named is T2, NC(=O)C1=CN([C@@H]2O[C@H](COP(=O)(O)OP(=O)(O)OC[C@H]3O[C@@H](n4cnc5c(N)ncnc54)[C@H](OP(=O)(O)O)[C@@H]3O)[C@@H](O)[C@H]2O)C=CC1.
T2 construct: His-tagged (vector pD861-CH), codon-optimised, expressed in E. coli BL21(DE3)
The series is described as follows: NAD(P)H oxidation, A340. It is filed as biochemical, Thermoanaerobacterium thermosaccharolyticum. The following applies: acetoacetyl-CoA as substrate, 100 mM MOPS-KOH pH 7.5, 55 °C, varied: cofactor. The text has this: (§1) NAD(P)H oxidation, A340 on Tt_Hbd

For series [4], the system named is T3, NC(=O)C1=CN([C@@H]2O[C@H](COP(=O)(O)OP(=O)(O)OC[C@H]3O[C@@H](n4cnc5c(N)ncnc54)[C@H](O)[C@@H]3O)[C@@H](O)[C@H]2O)C=CC1.
T3 construct: His-tagged (vector pD861-CH), codon-optimised, expressed in E. coli BL21(DE3)
The series can be described thus: NAD(P)H oxidation, A340. The settings on record: acetoacetyl-CoA as substrate, 100 mM MOPS-KOH pH 7.5, 55 °C, varied: cofactor. It is filed as biochemical, Thermoanaerobacterium thermosaccharolyticum.
Description: as §1

For orientation: Km means the concentration of substrate that gives half-maximal velocity. What is called Vmax is the top rate of the reaction or transport when substrate is in excess.

Chain of Tt_Hbd (Thermoanaerobacterium thermosaccharolyticum DSM 571; D31A) (chain, as listed by the source D31A): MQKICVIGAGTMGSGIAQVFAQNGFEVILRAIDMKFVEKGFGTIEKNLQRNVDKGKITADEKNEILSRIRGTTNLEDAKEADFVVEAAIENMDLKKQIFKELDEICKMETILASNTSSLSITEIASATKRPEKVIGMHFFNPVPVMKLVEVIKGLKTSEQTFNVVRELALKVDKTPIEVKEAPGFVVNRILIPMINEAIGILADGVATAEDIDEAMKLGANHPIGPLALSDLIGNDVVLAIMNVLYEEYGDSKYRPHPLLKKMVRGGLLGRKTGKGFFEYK
Chain of Tt_Hbd (Thermoanaerobacterium thermosaccharolyticum DSM 571) (chain, as listed by the source): as the sequence (chain, as listed by the source D31A) above, with A31D counted along it

As to “Tt_Crt (Thermoanaerobacterium thermosaccharolyticum DSM 571)”, the Km in series [1] is 600 ± 100 µM.

As to “Tt_Hbd (Thermoanaerobacterium thermosaccharolyticum DSM 571)”, the values for the Km in series [2], in series [3] and in series [4] were 30 ± 10 µM, 1100 ± 200 µM and 50 ± 20 µM, respectively. Besides, the values for the Vmax in series [3] and in series [4] were 15.2 µmol/min/mg and 61.4 µmol/min/mg, respectively.

For “Tt_Hbd (Thermoanaerobacterium thermosaccharolyticum DSM 571; D31A)”, in series [3], the Km was determined as 30 ± 10 µM and the Vmax was found to be 485 µmol/min/mg. In series [4], the Km is 60 ± 20 µM and the Vmax is 38.5 µmol/min/mg.
